Target: growth hormone receptor on ZFL cells (zebrafish liver cell line) (zebrafish)
Assay: cell-based or functional assay

increase in cell proliferation relative to no growth hormone added (MTS-formazan conversion assay, ZFL cells) [%]	Binder
118	recombinant ayu (Plecoglossus altivelis) growth hormone (ligand) MSENQRLFSIAVNRAQHLHLLAQKMFNDFEGNLSPDDRRQMNKIFLQDFCNSDSIISPVDKHETQKSSVQKLLHISFRLVESWEYPSQALSSSLSLSRFSEIPLKLTDLKLGIDTILRGTQDGLLSLEDNEAQQLPPYENYYQNLGGDDNIHRSYELLACFKKDMHKVETYLTVAKCRRSLEANCTLLEHHHHHH
58.3	recombinant yellow grouper (Epinephelus awoara) growth hormone (ligand) MITDGQRLFSIAVSRVQHLHLLAQRLFSDFESSLQTEEQRQLNKIFLQDFCNSDYIISPIDKHETQRSSVLKLLSISYRLVESWEFPSRSLSGGSAPRNQIFPKLSELKTGILLLIRANQDGAELFPDSSALQLAPYGNYYQSLGADESLRRTYELLACFKKDMHKVETYLTVAKCRLSPEANCTLLEHHHHHH

— patent US6429305 (ACADEMIA SINICA, dated 2002)
